Measured values taken from PMC2034485.

Legend:
GST-SAP (Homo sapiens) = GST-SAP (Homo sapiens) (UniProt Q9NS91); test: SPR
[1] = molecular target: human Rad18 (Rad18 1–495) (human) (UniProt Q9NS91); test: SEC-MALS

Chain of GST-SAP (Homo sapiens) (Q9NS91 whole entry): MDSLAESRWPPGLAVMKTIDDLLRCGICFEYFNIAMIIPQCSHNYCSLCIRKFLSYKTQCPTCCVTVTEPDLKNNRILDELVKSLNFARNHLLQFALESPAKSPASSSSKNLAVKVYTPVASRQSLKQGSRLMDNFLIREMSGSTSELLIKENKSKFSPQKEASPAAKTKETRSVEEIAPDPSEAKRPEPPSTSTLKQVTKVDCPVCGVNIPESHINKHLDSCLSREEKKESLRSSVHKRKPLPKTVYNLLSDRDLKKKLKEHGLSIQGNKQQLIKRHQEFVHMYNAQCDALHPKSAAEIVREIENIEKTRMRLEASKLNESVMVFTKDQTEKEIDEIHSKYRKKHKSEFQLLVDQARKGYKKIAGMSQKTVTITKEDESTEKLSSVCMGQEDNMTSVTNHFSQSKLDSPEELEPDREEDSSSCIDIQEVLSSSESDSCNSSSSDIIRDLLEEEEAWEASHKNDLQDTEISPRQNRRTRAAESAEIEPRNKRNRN
Chain of human Rad18 (Rad18 1–495) (Q9NS91 whole entry): as above

| Substance | Kd (GST-SAP (Homo sapiens)) [µM] | stoichiometry N [1] |
| --- | --- | --- |
| 40-mer dsDNA | 5.6 | – |
| TTTTTTTTTTTTTTTTTTTTTTTTTTTTTTTTTTTTTTTT [40T] | 1.1 | – |
| human Rad18 (Rad18 1–495) (from UniProt Q9NS91 1-495) (natural protein) | – | 2 |
